# Starred links: 1 amine or outer side, 2 acyl side, 3 side chain; linkers in the order of their positions; H or OH if unused. Positions of bridges follow the written chain, without caps; N, C: chain ends. Non-standard residues stand in square brackets, D forms with d. No end group written: not given here. X3 = 4‑(2-(4-(2-amino-2-carboxyethyl)phenoxy)ethyl)‑4‑methylmorpholin‑4‑ium, C[N+]1(CCOc2ccc(CC(N[*:1])C(=O)[*:2])cc2)CCOCC1; Trp(7-(3-AcNH-Ph)) = CC(=O)Nc1cccc(-c2cccc3c(C[C@H](N)C(=O)O)c[nH]c23)c1; 2Nal(6-OH) = N[C@@H](Cc1ccc2cc(O)ccc2c1)C(=O)O; Trp(7-Me) = Cc1cccc2c(C[C@H](N)C(=O)O)c[nH]c12; d(hLys(Me3)) = C[N+](C)(C)CCCCC[C@@H](N)C(=O)O; dLys(Me3) = C[N+](C)(C)CCCC[C@@H](N)C(=O)O; AEF = NCCOc1ccc(C[C@H](N)C(=O)O)cc1; 3Pal = N[C@@H](Cc1cccnc1)C(=O)O; d(hLys) = NCCCCC[C@@H](N)C(=O)O; Pen = CC(C)(S)[C@H](N)C(=O)O; Thp = NC1(C(=O)O)CCOCC1; Sar = CNCC(=O)O
# T1: interleukin-23 receptor (IL-23R), Q5VWK5
# T1 chain: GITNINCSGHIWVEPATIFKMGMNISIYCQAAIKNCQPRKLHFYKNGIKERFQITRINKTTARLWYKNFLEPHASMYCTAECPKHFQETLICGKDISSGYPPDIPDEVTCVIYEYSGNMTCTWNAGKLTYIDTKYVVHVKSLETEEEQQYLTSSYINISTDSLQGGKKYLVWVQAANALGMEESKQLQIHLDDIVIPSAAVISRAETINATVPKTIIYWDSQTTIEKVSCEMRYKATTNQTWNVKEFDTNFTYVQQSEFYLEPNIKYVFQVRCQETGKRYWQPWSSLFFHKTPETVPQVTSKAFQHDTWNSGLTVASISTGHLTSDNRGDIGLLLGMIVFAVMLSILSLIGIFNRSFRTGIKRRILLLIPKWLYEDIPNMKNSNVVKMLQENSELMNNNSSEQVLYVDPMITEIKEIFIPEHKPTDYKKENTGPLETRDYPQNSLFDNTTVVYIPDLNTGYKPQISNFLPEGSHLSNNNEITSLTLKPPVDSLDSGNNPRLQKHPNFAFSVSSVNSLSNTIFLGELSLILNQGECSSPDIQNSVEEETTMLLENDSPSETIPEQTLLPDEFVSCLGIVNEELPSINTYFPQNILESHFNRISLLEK
# Molecular target: T1, interleukin-23 receptor (IL-23R), Q5VWK5
# Test: cell-based or functional assay
Binder,PBMC pSTAT3 IC50,IL23R Reporter Assay IC50
"[Pen]NT[Trp(7-Me)]K[Pen][AEF][2Nal(6-OH)][Thp]K(Ac)N[3Pal][Sar] (disulfide 1-6 (inferred); not fully specified (residue 5); ends not checked; also: K5: lipidated lysine, lipid not given here) [SEQ ID NO: 96]",< 0.1 nM,
R[Pen]NT[Trp(7-Me)]K(Ac)[Pen][X3][2Nal(6-OH)][Thp]EN[3Pal][Sar] (not fully specified (bridges); ends and bridges not checked) [SEQ ID NO: 77],< 10 pM,< 10 nM
R[Pen]NTWK(Ac)[Pen][AEF][2Nal(6-OH)][Thp]EN[3Pal][Sar] (not fully specified (bridges); ends and bridges not checked) [SEQ ID NO: 74],< 0.1 nM,< 10 nM
"[Pen]NT[Trp(7-Me)]K(Ac)[Pen][5‑(4-(2-amino-2-carboxyethyl)phenoxy)‑N,N,N‑trimethylpentan‑1‑aminium][2Nal(6-OH)][Thp]EN[3Pal][Sar] (not fully specified (bridges); ends and bridges not checked) [SEQ ID NO: 79]",< 10 pM,< 10 nM
"[Pen]NT[Trp(7-(3-AcNH-Ph))]K(Ac)[Pen][5‑(4-(2-amino-2-carboxyethyl)phenoxy)‑N,N,N‑trimethylpentan‑1‑aminium][2Nal(6-OH)][Thp]EN[3Pal][Sar] (disulfide 1-6 (inferred); ends not checked) [SEQ ID NO: 63]",< 0.1 nM,< 10 nM
"[dLys(Me3)][Pen]NT[Trp(7-Me)]K(Ac)[Pen][5‑(4-(2-amino-2-carboxyethyl)phenoxy)‑N,N,N‑trimethylpentan‑1‑aminium][2Nal(6-OH)][Thp]EN[3Pal][Sar] (not fully specified (bridges); ends and bridges not checked) [SEQ ID NO: 67]",< 0.1 nM,< 10 nM
R[Pen]NT[Trp(7-(3-AcNH-Ph))]K(Ac)[Pen][X3][2Nal(6-OH)][Thp]ENH[Sar] (disulfide 2-7 (inferred); ends not checked) [SEQ ID NO: 64],< 1 nM,
[Pen]NT[Trp(7-(3-AcNH-Ph))]K(Ac)[Pen][AEF][2Nal(6-OH)][Thp]EN[3Pal][Sar] (not fully specified (bridges); ends and bridges not checked) [SEQ ID NO: 69],< 10 pM,< 10 nM
R[Pen]NT[Trp(7-(3-AcNH-Ph))]K(Ac)[Pen]Y[2Nal(6-OH)][Thp]EN[3Pal][Sar] (disulfide 2-7 (inferred); ends not checked) [SEQ ID NO: 65],< 1 nM,< 10 nM
R[Pen]NT[Trp(7-(3-AcNH-Ph))]K(Ac)[Pen][X3][2Nal(6-OH)][Thp]EN[Thp] (disulfide 2-7 (inferred); ends not checked) [SEQ ID NO: 110],< 1 nM,

# Second part, the binder after the results:
PBMC pSTAT3 IC50,IL23R Reporter Assay IC50,Binder
< 1 nM,,K[Pen]ET[Trp(7-Me)]K(Ac)[Pen][AEF][2Nal(6-OH)][Thp]K(Ac)N[3Pal][Sar] (disulfide 2-7 (inferred); ends not checked) [SEQ ID NO: 134]
< 0.1 nM,,"[(R)‑2‑(2-(3-((5-carboxy-5-hydrazineylpentyl)amino)-3-oxopropoxy)ethoxy)‑N,N,N‑trimethylethan‑1‑aminium][Pen]NT[Trp(7-Me)]K(Ac)[Pen][2‑amino‑3‑(4-(2-aminoethoxy)phenyl)propanoic acid][2‑amino‑3‑(6-hydroxynaphthalen-2-yl)propanoic acid][Thp]EN[3Pal][Sar] (disulfide 2-7 (inferred); ends not checked) [SEQ ID NO: 145]"
< 1 nM,,"[d(hLys)](Me3)[Pen]NT[Trp(7-Me)]K[Pen][AEF][2Nal(6-OH)][Thp]K(Ac)N[3Pal][Sar] (disulfide 2-7 (inferred); ends not checked; also: K6: lipidated lysine, lipid not given here) [SEQ ID NO: 119]"
< 1 nM,,"R[Pen]NT[Trp(7-Me)]K(Ac)[Pen][AEF][2Nal(6-OH)][Thp]EN[3Pal][Sar]K (disulfide 2-7 (inferred); ends not checked; also: K15: lipidated lysine, lipid not given here) [SEQ ID NO: 116]"
< 1 nM,,"K[Pen]NT[Trp(7-Me)]K(Ac)[Pen][AEF][2Nal(6-OH)][Thp]K(Ac)N[3Pal][Sar] (disulfide 2-7 (inferred); ends not checked; also: K1: lipidated lysine, lipid not given here) [SEQ ID NO: 118]"
< 1 nM,,"R[Pen]ET[Trp(7-Me)]K[Pen][AEF][2Nal(6-OH)][Thp]EN[3Pal][Sar] (disulfide 2-7 (inferred); ends not checked; also: K6: lipidated lysine, lipid not given here) [SEQ ID NO: 140]"
< 1 nM,,[d(hLys(Me3))][Pen]NT[Trp(7-Me)]K(Ac)[Pen][2‑amino‑3‑(4-(2-aminoethoxy)phenyl)propanoic acid][2‑amino‑3‑(6-hydroxynaphthalen-2-yl)propanoic acid][Thp]EN[3Pal][Sar] (disulfide 2-7 (inferred); ends not checked) [SEQ ID NO: 144]
< 1 nM,,"[Pen]NT[Trp(7-Me)]K[Pen][AEF][2Nal(6-OH)][Thp]K(Ac)N[3Pal][Sar] (disulfide 1-6 (inferred); ends not checked; also: K5: lipidated lysine, lipid not given here) [SEQ ID NO: 131]"
< 1 nM,,"R[Pen]ET[Trp(7-Me)]K(Ac)[Pen][2‑amino‑3‑(4-(2-aminoethoxy)phenyl)propanoic acid][2‑amino‑3‑(6-hydroxynaphthalen-2-yl)propanoic acid][Thp]EN[3Pal][Sar]K (disulfide 2-7 (inferred); ends not checked; also: Lys15: lipidated lysine, lipid not given here) [SEQ ID NO: 147]"
< 1 nM,,"K[Pen]NT[Trp(7-Me)]K(Ac)[Pen][AEF][2Nal(6-OH)][Thp]EN[3Pal][Sar] (disulfide 2-7 (inferred); ends not checked; also: K1: lipidated lysine, lipid not given here) [SEQ ID NO: 126]"
< 1 nM,,"[Pen]NT[Trp(7-Me)]K(Ac)[Pen][AEF][2Nal(6-OH)][Thp]KN[3Pal][Sar] (disulfide 1-6 (inferred); ends not checked; also: K10: lipidated lysine, lipid not given here) [SEQ ID NO: 128]"
< 0.1 nM,,R[Pen]ET[Trp(7-Me)]K(Ac)[Pen][AEF][2Nal(6-OH)][Thp]EN[3Pal][Sar] (disulfide 2-7 (inferred); ends not checked) [SEQ ID NO: 141]
< 0.1 nM,,"R[Pen]ET[Trp(7-Me)]K(Ac)[Pen][2‑amino‑3‑(4-(2-aminoethoxy)phenyl)propanoic acid][2‑amino‑3‑(6-hydroxynaphthalen-2-yl)propanoic acid][Thp]EN[3Pal][Sar]K (disulfide 2-7 (inferred); ends not checked; also: Lys15: lipidated lysine, lipid not given here) [SEQ ID NO: 142]"
< 1 nM,,"[Pen]NT[Trp(7-Me)]K(Ac)[Pen][AEF][2Nal(6-OH)][Thp]KN[3Pal][Sar] (disulfide 1-6 (inferred); ends not checked; also: K10: lipidated lysine, lipid not given here) [SEQ ID NO: 129]"
< 0.1 nM,,"[Pen]NT[Trp(7-Me)]K(Ac)[Pen][AEF][2Nal(6-OH)][Thp]K(Ac)N[3Pal][Sar]K (disulfide 1-6 (inferred); ends not checked; also: K14: lipidated lysine, lipid not given here) [SEQ ID NO: 139]"

# Source: US20240279281A1, “Peptide Inhibitors of Interleukin-23 Receptor” (Janssen Pharmaceutica NV, priority 2023, published 2024)
